Drawing on paper PMC4601027 (2015), this text covers Kd for two molecules.

B1: CPEB1 pS210 peptide (peptide)
chain: RI[pS]PPLPF-NH2
B2: Pin1 WW domain (domain or fragment)
chain: MADEEKLPPGWEKRMSRSSGRVYYFNHITNASQWERPSGNS

Non-standard residues stand in square brackets, D forms with d. No end group written: not given here. pS = N[C@@H](COP(=O)(O)O)C(=O)O

Some targets named below: full-length Pin1 (UniProt Q13526 1-163); CPEB1 pS184 peptide (UniProt Q9BZB8, phosphoserine at 184); CPEB1 pS423 peptide (UniProt Q9BZB8, phosphoserine at 423); CPEB1 pS248 peptide (UniProt Q9BZB8, phosphoserine at 248); CPEB1 pS138 peptide (UniProt Q9BZB8, phosphoserine at 138); CPEB1 pS144 peptide (UniProt Q9BZB8, phosphoserine at 144).
What all share (assay): ITC
Background: ITC needs no label: the signal is the heat of the interaction.

The assay “Pin1 WW domain” concerns the target B2.

Chain of full-length Pin1 (Q13526 whole entry): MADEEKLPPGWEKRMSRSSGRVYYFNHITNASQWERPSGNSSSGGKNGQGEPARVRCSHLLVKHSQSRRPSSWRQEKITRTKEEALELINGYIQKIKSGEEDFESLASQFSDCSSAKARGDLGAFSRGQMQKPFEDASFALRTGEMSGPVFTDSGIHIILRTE

Take B1: the Kd (commonly the free concentration of one partner at which half of the binding sites on the other are occupied at equilibrium, for simple one-to-one binding) with full-length Pin1 is 32.3 µM; with Pin1 WW domain, 30.3 µM.

For B2, the Kd with CPEB1 pS184 peptide worked out at 28.6 µM; with CPEB1 pS423 peptide, 158 µM; with CPEB1 pS248 peptide it was 47.6 µM; with CPEB1 pS138 peptide, 71.3 µM; with CPEB1 pS144 peptide it was 75.4 µM.
